The values below come from patent US20210388087A1 (Chugai, published 2021).

Residue numbers refer to the chain shown, from its start. Names and notes keep the numbering of the source.

Sequences and labels used below:
T1: Human CD3eg linker (human)
T1 construct: Single chain: epsilon and gamma subunits of human CD3 joined by a 29-mer linker, Flag-tag at the C-terminus; also called recombinant human CD3
T1 chain: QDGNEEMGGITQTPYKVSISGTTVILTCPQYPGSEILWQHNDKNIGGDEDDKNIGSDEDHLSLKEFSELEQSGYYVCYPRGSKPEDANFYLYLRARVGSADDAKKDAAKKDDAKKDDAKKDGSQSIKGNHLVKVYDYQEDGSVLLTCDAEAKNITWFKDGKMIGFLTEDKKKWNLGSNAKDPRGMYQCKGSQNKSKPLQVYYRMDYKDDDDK

B1: H183/L072 VH S62M (antibody, name in Kabat numbering, V domains shown)
VH: QVQLVESGGGLVQPGRSLRLSCAASGFTFSNAWMHWVRQAPGKGLEWVAQIKDKGNAYAAYYAPMVKGRFTISRDDSKNSIYLQMNSLKTEDTAVYYCHYVHYASASTVLPAFGVDAWGQGTTVTVSS
VL: DIVMTQSPLSLPVTPGEPASISCQASQELVHMNRNTYLHWYQQKPGQAPRLLIYKVSNRFPGVPDRFSGSGSGTDFTLKISRVEAEDVGVYYCAQGTSVPFTFGQGTKLEIK
B2: H183/L072 VH T100bA (antibody, name in Kabat numbering, V domains shown)
VH: B1 VH with M65S, T108A
VL: B1 VL
B3: H183/L072 VH T100bL (antibody, name in Kabat numbering, V domains shown)
VH: B1 VH with M65S, T108L
VL: B1 VL
B4: H183/L072 VH T28Q (antibody, name in Kabat numbering, V domains shown)
VH: B1 VH with T28Q, M65S
VL: B1 VL
B5: H183/L072 VH S100aI (antibody, name in Kabat numbering, V domains shown)
VH: B1 VH with M65S, S107I
VL: B1 VL
B6: H183/L072 VH T28D (antibody, name in Kabat numbering, V domains shown)
VH: B1 VH with T28D, M65S
VL: B1 VL
B7: H183/L072 VH T28E (antibody, name in Kabat numbering, V domains shown)
VH: B1 VH with T28E, M65S
VL: B1 VL
B8: H183/L072 VH S100aP (antibody, name in Kabat numbering, V domains shown)
VH: B1 VH with M65S, S107P
VL: B1 VL
B9: H183/L072 VH V95A (antibody, name in Kabat numbering, V domains shown)
VH: B1 VH with M65S, V101A
VL: B1 VL
B10: H183/L072 VH V95L (antibody, name in Kabat numbering, V domains shown)
VH: B1 VH with M65S, V101L
VL: B1 VL
B11: H183/L072 VH S100aA (antibody, name in Kabat numbering, V domains shown)
VH: B1 VH with M65S, S107A
VL: B1 VL
B12: H183/L072 VH T28P (antibody, name in Kabat numbering, V domains shown)
VH: B1 VH with T28P, M65S
VL: B1 VL
B13: H183/L072 VH V95I (antibody, name in Kabat numbering, V domains shown)
VH: B1 VH with M65S, V101I
VL: B1 VL
B14: H183/L072 VH S99A (antibody, name in Kabat numbering, V domains shown)
VH: B1 VH with M65S, S105A
VL: B1 VL
B15: H183/L072 VH S99I (antibody, name in Kabat numbering, V domains shown)
VH: B1 VH with M65S, S105I
VL: B1 VL
B16: H183/L072 VH V63I (antibody, name in Kabat numbering, V domains shown)
VH: B1 VH with M65S, V66I
VL: B1 VL
B17: H183/L072 VH V63P (antibody, name in Kabat numbering, V domains shown)
VH: B1 VH with M65S, V66P
VL: B1 VL
B18: H183/L072 VH T28S (antibody, name in Kabat numbering, V domains shown)
VH: B1 VH with T28S, M65S
VL: B1 VL
B19: H183/L072 VH V63A (antibody, name in Kabat numbering, V domains shown)
VH: B1 VH with M65S, V66A
VL: B1 VL
B20: H183/L072 VH T28K (antibody, name in Kabat numbering, V domains shown)
VH: B1 VH with T28K, M65S
VL: B1 VL
B21: H183/L072 VH T28V (antibody, name in Kabat numbering, V domains shown)
VH: B1 VH with T28V, M65S
VL: B1 VL
B22: H183/L072 VH S99L (antibody, name in Kabat numbering, V domains shown)
VH: B1 VH with M65S, S105L
VL: B1 VL
B23: H183/L072 VH T28I (antibody, name in Kabat numbering, V domains shown)
VH: B1 VH with T28I, M65S
VL: B1 VL
B24: H183/L072 VH T28M (antibody, name in Kabat numbering, V domains shown)
VH: B1 VH with T28M, M65S
VL: B1 VL
B25: H183/L072 VH T28H (antibody, name in Kabat numbering, V domains shown)
VH: B1 VH with T28H, M65S
VL: B1 VL
B26: H183/L072 VH S100aM (antibody, name in Kabat numbering, V domains shown)
VH: B1 VH with M65S, S107M
VL: B1 VL
B27: H183/L072 VH T28A (antibody, name in Kabat numbering, V domains shown)
VH: B1 VH with T28A, M65S
VL: B1 VL
B28: H183/L072 VH T100bI (antibody, name in Kabat numbering, V domains shown)
VH: B1 VH with M65S, T108I
VL: B1 VL
B29: H183/L072 VH T28F (antibody, name in Kabat numbering, V domains shown)
VH: B1 VH with T28F, M65S
VL: B1 VL
B30: H183/L072 VH T100bM (antibody, name in Kabat numbering, V domains shown)
VH: B1 VH with M65S, T108M
VL: B1 VL
B31: H183/L072 VH T28W (antibody, name in Kabat numbering, V domains shown)
VH: B1 VH with T28W, M65S
VL: B1 VL
B32: H183/L072 VH T100bP (antibody, name in Kabat numbering, V domains shown)
VH: B1 VH with M65S, T108P
VL: B1 VL
B33: H183/L072 VH S62P (antibody, name in Kabat numbering, V domains shown)
VH: B1 VH with M65P
VL: B1 VL
B34: H183/L072 VH T28R (antibody, name in Kabat numbering, V domains shown)
VH: B1 VH with T28R, M65S
VL: B1 VL
B35: H183/L072 VH S99P (antibody, name in Kabat numbering, V domains shown)
VH: B1 VH with M65S, S105P
VL: B1 VL
B36: H183/L072 VH T28N (antibody, name in Kabat numbering, V domains shown)
VH: B1 VH with T28N, M65S
VL: B1 VL
B37: H183/L072 VH T28L (antibody, name in Kabat numbering, V domains shown)
VH: B1 VH with T28L, M65S
VL: B1 VL
B38: H183/L072 VH V63L (antibody, name in Kabat numbering, V domains shown)
VH: B1 VH with M65S, V66L
VL: B1 VL
B39: H183/L072 VH V63M (antibody, name in Kabat numbering, V domains shown)
VH: B1 VH with M65S, V66M
VL: B1 VL
B40: H183/L072 VH S100aL (antibody, name in Kabat numbering, V domains shown)
VH: B1 VH with M65S, S107L
VL: B1 VL
B41: H183/L072 VH S99M (antibody, name in Kabat numbering, V domains shown)
VH: B1 VH with M65S, S105M
VL: B1 VL
B42: H183/L072 VH T28G (antibody, name in Kabat numbering, V domains shown)
VH: B1 VH with T28G, M65S
VL: B1 VL

The target of the experiment is T1, Human CD3eg linker. As to the kind of experiment: Biacore SPR, vs template H183/L072. For orientation: In SPR one partner is held on a chip, and binding of the other changes the refractive index at the surface.
As to B1, the “fold change of affinity” value is 1.3 fold.

B2: the “fold change of affinity” value was found to be 1.1 fold.

Take B3: the “fold change of affinity” value stood at 1.1 fold. For the molecule B4, the “fold change of affinity” value came out at 0 fold. Then B5, with 1 fold; and B6, with 0.6 fold; and B7, with 0.6 fold. The result for B8 reads 1.1 fold; that for B9, 0 fold. Then B10, with 0 fold; and B11, with 0.8 fold; and B12, with 0.7 fold. In the case of B13, the “fold change of affinity” value turned out to be 7.5 fold.

Turning to B14, the “fold change of affinity” value is 1 fold. The result for B15 reads 0.7 fold; that for B16, 1.4 fold; that for B17, 1.2 fold. The result for B18 reads 1.2 fold; that for B19, 1.1 fold; that for B20, 2.7 fold.

As to B21, the “fold change of affinity” value stood at 1 fold. The result for B22 reads 0.8 fold. Then B23, with 1.1 fold; and B24, with 0.8 fold; and B25, with 0.9 fold. As for B26, the “fold change of affinity” value was determined as 0.8 fold.

Regarding B27, the “fold change of affinity” value stood at 0 fold. Then B28, with 1.4 fold.

In the case of B29, the “fold change of affinity” value turned out to be 1 fold. Then B30, with 1 fold; and B31, with 0.9 fold.

In the case of B32, the “fold change of affinity” value amounted to 1.1 fold. Then B33, with 1.3 fold; and B34, with 2.9 fold; and B35, with 0.6 fold.

B36: the “fold change of affinity” value was found to be 0.8 fold. The result for B37 reads 0.9 fold; that for B38, 1.6 fold; that for B39, 1.4 fold. The result for B40 reads 1.1 fold; that for B41, 0.9 fold. Then B42, with 0.7 fold.
